Measured values: PMC11538452

Biological target: A9 anti-CD40 antibody, deimmunized variant
Assay: SPR; wildtype against deimmunized variant on the CD40 protein (Supplementary Fig. 3B); format of this experiment not told in what was shown

human CD40-Fc, sequence (P25942 21-193): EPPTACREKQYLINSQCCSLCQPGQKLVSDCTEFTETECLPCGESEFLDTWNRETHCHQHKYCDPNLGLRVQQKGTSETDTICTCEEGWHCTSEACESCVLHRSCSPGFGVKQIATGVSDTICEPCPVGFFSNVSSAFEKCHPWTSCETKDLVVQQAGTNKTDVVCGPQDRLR

How did the Kd turn out when “human CD40-Fc (from UniProt P25942 21-193) (Fc fusion)” was run?
The Kd was 1.6 nM.
